Data as given in paper PMC3465764.

Substrate: NC(=O)c1cnccn1
Assay: steady-state enzyme kinetics
Type: biochemical, Acinetobacter baumannii

B1: AbPncA (Acinetobacter baumannii ATCC 19606 = CIP 70.34 = JCM 6841) (protein)
chain: MKMNKQPQNSALVVVDVQNGFTPGGNLAVADADTIIPTINQLAGCFENVVLTQDWHPDNHISFAANHPGKQPFETIELDYGSQVLWPKHCIQGTHDAEFHPDLNIPTAQLIIRKGFHAHIDSYSAFMEADHTTMTGLTGYLKERGIDTVYVVGIATDFCVAWTALDAVKQGFKTLVIEDACKGIDLNGSLEQAWQTMQQQGVVRIQSTDLLNEC
Km: 106.9 µM
